According to PMC4413047, “‘Dopamine-first’ mechanism enables the rational engineering of the norcoclaurine synthase aldehyde activity profile” (The Febs Journal, 2015):

Key:
Test in all cases: purified protein
Format in all cases: biochemical, Thalictrum flavum
O=CCc1ccc(O)cc1 = conditions: 2.5 mM dopamine (nonsaturating), 50 mM Hepes, 37 °C
NCCc1ccc(O)c(O)c1 = conditions: 2.5 mM 4-HPAA (nonsaturating), 50 mM Hepes, 37 °C
CC(C)=CCC[C@@H](C)CC=O = conditions: 2.5 mM dopamine (nonsaturating), 50 mM Hepes, 37 °C
CCCCCC=O = conditions: 2.5 mM dopamine (nonsaturating), 50 mM Hepes, 37 °C
CC(C)=CCC[C@H](C)CC=O = conditions: 2.5 mM dopamine (nonsaturating), 50 mM Hepes, 37 °C

Substance | Km (O=CCc1ccc(O)cc1) | Vmax (O=CCc1ccc(O)cc1) | kcat (O=CCc1ccc(O)cc1) | kcat/Km (O=CCc1ccc(O)cc1) | Km (NCCc1ccc(O)c(O)c1) | Vmax (NCCc1ccc(O)c(O)c1) | kcat (NCCc1ccc(O)c(O)c1) | kcat/Km (NCCc1ccc(O)c(O)c1) | Km (CC(C)=CCC[C@@H](C)CC=O) | Vmax (CC(C)=CCC[C@@H](C)CC=O) | kcat (CC(C)=CCC[C@@H](C)CC=O) | kcat/Km (CC(C)=CCC[C@@H](C)CC=O) | Km (CCCCCC=O) | Vmax (CCCCCC=O) | kcat (CCCCCC=O) | kcat/Km (CCCCCC=O) | Km (CC(C)=CCC[C@H](C)CC=O) | Vmax (CC(C)=CCC[C@H](C)CC=O) | kcat (CC(C)=CCC[C@H](C)CC=O) | kcat/Km (CC(C)=CCC[C@H](C)CC=O)
TfNCS (Δ29TfNCS) (Thalictrum flavum subsp. glaucum) | 18.1 ± 1.4 mM | 53.6 µmol/min/mg | 18.7 ± 0.9 s⁻¹ | 1030 ± 90 M⁻¹ s⁻¹ | 22.2 ± 1.5 mM | 69 µmol/min/mg | 24 ± 1 s⁻¹ | 1090 ± 80 M⁻¹ s⁻¹ | 0.53 ± 0.14 mM | 1.07 µmol/min/mg | 0.37 ± 0.03 s⁻¹ | 710 ± 200 M⁻¹ s⁻¹ | 13.4 ± 1.8 mM | 12.3 µmol/min/mg | 4.3 ± 0.3 s⁻¹ | 320 ± 50 M⁻¹ s⁻¹ | 0.38 ± 0.10 mM | 1.32 µmol/min/mg | 0.46 ± 0.02 s⁻¹ | 1200 ± 310 M⁻¹ s⁻¹
TfNCS (Δ29TfNCS) (Thalictrum flavum subsp. glaucum; L76A) | 17.4 ± 1.0 mM | 40.9 µmol/min/mg | 14.3 ± 0.5 s⁻¹ | 820 ± 50 M⁻¹ s⁻¹ | 16.8 ± 1.0 mM | 38.9 µmol/min/mg | 13.6 ± 0.5 s⁻¹ | 810 ± 60 M⁻¹ s⁻¹ | 0.49 ± 0.11 mM | 1.58 µmol/min/mg | 0.55 ± 0.03 s⁻¹ | 1130 ± 270 M⁻¹ s⁻¹ | 13.4 ± 0.8 mM | 9 µmol/min/mg | 3.2 ± 0.1 s⁻¹ | 240 ± 20 M⁻¹ s⁻¹ | 0.59 ± 0.09 mM | 2.7 µmol/min/mg | 0.93 ± 0.05 s⁻¹ | 1570 ± 250 M⁻¹ s⁻¹
TfNCS (Δ29TfNCS) (Thalictrum flavum subsp. glaucum; Y108F) | – | – | – | – | 13.3 ± 0.7 mM | 29.1 µmol/min/mg | 10.2 ± 0.3 s⁻¹ | 760 ± 50 M⁻¹ s⁻¹ | – | – | – | – | 7.6 ± 0.9 mM | 7.14 µmol/min/mg | 2.5 ± 0.1 s⁻¹ | 330 ± 40 M⁻¹ s⁻¹ | – | – | – | –
